Where two headings read alike, the source gives them in different places.
Columns and labels:
[1] = target: T1, RBD of the SARS-CoV-2 spike protein, Beta (B.1.351) variant (SARS-CoV-2 (Beta variant), UniProt P0DTC2 319-541); assay: ELISA, plate coated with RBD at 2 µg/ml, anti-human IgG-HRP detection
T1 construct: domain: RBD

[2] = target: T2, RBD of the SARS-CoV-2 spike protein, Delta (B.1.617.2) variant (SARS-CoV-2 (Delta variant), UniProt P0DTC2 319-541); assay: as above
T2 construct: domain: RBD

[3] = target: T3, RBD of the SARS-CoV-2 spike protein, Gamma (P.1) variant (SARS-CoV-2 (Gamma variant), UniProt P0DTC2 319-541); assay: as above
T3 construct: domain: RBD

[4] = target: T4, SARS-CoV-2 spike protein, Omicron BA.2 variant, on pseudovirus (SARS-CoV-2 (Omicron BA.2 variant)); assay: cell-based or functional assay
[5] = target: T5, SARS-CoV-2 spike protein, Beta (B.1.351) variant, on pseudovirus (SARS-CoV-2 (Beta variant)); assay: cell-based or functional assay
[6] = target: T6, SARS-CoV-2 spike protein, Delta (B.1.617.2) variant, on pseudovirus (SARS-CoV-2 (Delta variant)); assay: cell-based or functional assay
[7] = target: T7, SARS-CoV-2 spike protein, Gamma (P.1) variant, on pseudovirus (SARS-CoV-2 (Gamma variant)); assay: cell-based or functional assay
[8] = target: T8, SARS-CoV-2 spike protein, Alpha (B.1.1.7) variant, on pseudovirus (SARS-CoV-2 (Alpha variant)); assay: cell-based or functional assay
[9] = target: SARS-CoV-2 spike protein, Mu (B.1.621) variant, on pseudovirus (SARS-CoV-2 (Mu variant)); assay: cell-based or functional assay
[10] = target: T5, SARS-CoV-2 spike protein, Beta …; assay: cell-based or functional assay; remark: listed apart in the source
[11] = target: T6, SARS-CoV-2 spike protein, Delta …; assay: cell-based or functional assay; remark: listed apart in the source
[12] = target: T7, SARS-CoV-2 spike protein, Gamma (P.1) …; assay: cell-based or functional assay; remark: listed apart in the source
[13] = target: T8, SARS-CoV-2 spike protein, Alpha …; assay: cell-based or functional assay; remark: listed apart in the source
[14] = target: T4, SARS-CoV-2 spike protein, Omicron BA.2 …; assay: cell-based or functional assay; remark: listed apart in the source
[15] = target: SARS-CoV-2 spike protein, Omicron BA.4/BA.5 variants, on pseudovirus (SARS-CoV-2 (Omicron BA.4/BA.5 variants)); assay: cell-based or functional assay

B1: mAb17T2 (antibody, V domains shown)
VH: QVQLVQSGPEVKKPGTSVKVSCKAPVFTFSISAVQWVRQARGQRLEWIGWIVVGSGNTNYAQNFQERVTITTDMSTGTVYMELSGLRSEDTAMYYCAAPYCNRTTCYDGFDLWGQGTMVTVSS
VL: EIVLTQSPGTLSLSPGERATLSCRASQSISSNYLAWYQQKPGQAPRLLIYGASSRATGIPDRFSGSGSGTDFTLSINRLEPEDFAMYYCQHYGGLSRWTFGQGTKVEIKR
EC50 [1]: 3.76 ng/mL | EC50 [2]: 3.38 ng/mL | EC50 [3]: 3.08 ng/mL | fold neutralizing activity compared to S2E12 [4]: 13.5 fold | fold neutralizing activity compared to S309 [4]: 41 fold | IC50 (µg/ml), pseudotyped virus neutralization [5]: 0.0022 µg/mL | IC80 (µg/ml), pseudotyped virus neutralization [5]: 0.00481 µg/mL | IC90 (µg/ml), pseudotyped virus neutralization [5]: 0.0076 µg/mL | IC50 (µg/ml), pseudotyped virus neutralization [6]: 0.0105 µg/mL | IC80 (µg/ml), pseudotyped virus neutralization [6]: 0.0165 µg/mL | IC90 (µg/ml), pseudotyped virus neutralization [6]: 0.0215 µg/mL | IC50 (µg/ml), pseudotyped virus neutralization [7]: 0.0126 µg/mL | IC80 (µg/ml), pseudotyped virus neutralization [7]: 0.0218 µg/mL | IC90 (µg/ml), pseudotyped virus neutralization [7]: 0.0302 µg/mL | IC50 (µg/ml), pseudotyped virus neutralization [8]: 0.00666 µg/mL | IC80 (µg/ml), pseudotyped virus neutralization [8]: 0.014 µg/mL | IC90 (µg/ml), pseudotyped virus neutralization [8]: 0.0216 µg/mL | IC50 (µg/ml), pseudotyped virus neutralization [9]: 0.00907 µg/mL | IC80 (µg/ml), pseudotyped virus neutralization [9]: 0.014 µg/mL | IC90 (µg/ml), pseudotyped virus neutralization [9]: 0.0181 µg/mL | IC50 (µg/ml), pseudotyped virus neutralization [10]: 0.0027 µg/mL | IC50 (µg/ml), pseudotyped virus neutralization [11]: 0.0096 µg/mL | IC50 (µg/ml), pseudotyped virus neutralization [12]: 0.0083 µg/mL | IC50 (µg/ml), pseudotyped virus neutralization [13]: 0.0069 µg/mL | IC50 (µg/ml), pseudotyped virus neutralization [14]: 0.0101 µg/mL | IC50 (µg/ml), pseudotyped virus neutralization [15]: 0.00203 µg/mL

— EP4349860A1 (Fundació Institut Hospital Del Mar D'Investigacions …, dated 2024)
